From the supplement of paper PMC12042874
± gives the uncertainty stated by the source.

Assay: amyloid nucleation score (Sup35N fusion, yeast selection) (log enrichment); library NNK1; higher = more nucleation; inactive = no reads after selection
How it was run: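 In psi-negative yeast, Sup35N fusions carrying peptides of 20 random codons were induced with 100 μM copper sulfate for 24 hours. The cells then grew 7 days at 30°C on medium lacking adenine and uracil, and plasmid inserts from input and output were Illumina-sequenced, excluding sequences with under 100 input reads. Nucleation score is the DiMSum log enrichment of output over input reads, centred on the mode score of non-aggregating sequences.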

Substance | amyloid nucleation score
PVGRCDQRDTRIHWGNYKVE | inactive
PVLYNHCGVNLCPTLCLSNY | 7.199 ± 0.053
PWCTGRLTGSNCKVYWITRS | 0.515 ± 0.36
PWNLIISSYASYYTCKVLVS | -0.563 ± 1.1
PWSPTVIRPVFSEKGQFSQL | -0.538 ± 0.59
PWSRDARPSADW | inactive
PWVTLVRAMCMFINVDLVSR | 0.201 ± 0.72
PYKLFHVVSCCRTQGDNVAK | -0.813 ± 0.49
PYKLGCICITNDFSQAPTVA | -0.652 ± 0.92
PYLYRTLKKPLATHWSQFVK | -1.22 ± 0.9
PYSSDAKMCHLLETASNLLV | 0.577 ± 0.56
PYVFLGVMDPRVYDMLLHAN | -0.085 ± 0.24
PYVFPVRYYSTILWYAIYVR | 0.558 ± 0.28
PYWSDKWVFCRLKVVFIHVL | -0.066 ± 0.69
PYWWS | inactive
QCRILAHAGLLPSGTCPMWL | -0.919 ± 0.92
QDCARH | inactive
QDFILDNCFPEGNLVCFKGV | 0.361 ± 0.58
QDTVFYMTDWGCGATKARDD | 0.117 ± 0.94
QEDRGPLLHFRLNSYNVMTQ | 0.471 ± 0.62
QEGCQTLTSTSLVGGRKESS | 0.872 ± 0.75
QELICMGSEYVFPNWTSFRA | -0.412 ± 0.49
QELWHMYSIYYVFRTGDHIY | -0.163 ± 0.27
QFDVVMMWQTE | -0.189 ± 0.3
QFFTILCTGILLLNASTRLL | -0.777 ± 2.4

Substance | amyloid nucleation score
QFMIICHMMVNNW | 7.003 ± 0.044
QFSCIPESTYSS | 0.047 ± 0.41
QGCPRVWRSQSCCGVGGVIP | inactive
QGINLVY | -0.342 ± 0.38
QGLNNMHSGVVLKMLT | 1.22 ± 0.54
QGSDAYHSMNMQLWVSRTLT | 0.18 ± 0.36
QGSPARMCVL | 0.629 ± 1
QHCRA | 0.639 ± 0.88
QHHSRRMNLGC | -0.407 ± 0.32
QHTNTSLSVTTPPVLYWNHC | 0.419 ± 0.45
QHYMQVIDLGSWWSSWVYFI | -0.005 ± 0.97
QIIEPRARENGRINMMMVGG | 0.481 ± 0.61
QILCLTVVSVFQGYSVMIPF | 0.022 ± 0.32
QINLSGVSVDEWLSLWYGVL | 0.468 ± 0.72
QIPPRDL | 0.274 ± 0.51
QIRGGGAGSDSVDGHRALEA | 1.08 ± 0.59
QISVGTYWFANWCGIILNQV | 1.99 ± 0.28
QISVNQIY | inactive
QKIDNSIGQFYRKI | -1.15 ± 0.59
QKLCCLSNVVLNTGP | inactive
QLCGFITCIISMSLPGYQCE | 7.816 ± 0.052
QLCGVVK | -1.07 ± 1.6
QLFMHPRGIMKGLF | 0.581 ± 0.52
QLFVRFGRSARLVIAESQKA | -0.077 ± 0.33
QLNLNLFACQCSTV | 8.072 ± 0.076

Substance | amyloid nucleation score
QMGCAYEDARRSHDFKCCFG | 0.013 ± 0.42
QMTCSD | 1.6 ± 0.8
QMYFSFYLLCCLSSEFSI | 3.02 ± 0.11
QNFDHTIHRISVVVPGA | -0.099 ± 1.6
QNLYVLDSYSLLNNFVSCII | -0.623 ± 0.35
QNMLDWLKLGLYYHNFQAWV | -0.94 ± 2.7
QNMLFTIKRFSNQPDTVVFE | -0.202 ± 0.49
QNPFSTSHIVRSLLCLNDVI | inactive
QNRLS | 2.28 ± 0.61
QRECWMYMMFMGYHLLEAQV | 0.215 ± 1.2
QRGMTIL | 0.109 ± 0.31
QRHITSL | -1.37 ± 1.9
QRIFTRLIYIRYAIPKFRTK | -0.399 ± 0.32
QRNHWLYGVTLMPCSHICIL | 7.594 ± 0.053
QRNVPIGLVRYDAV | 0.45 ± 1.1
QRRHYTWMLIRKRSSLHKAR | -0.462 ± 0.59
QSFFHCVLYAIPHVRLS | -1.07 ± 1.1
QSICFYSLKQCIRAKHR | 0.774 ± 0.37
QSNLYLLALELAYECYSGCH | 0.049 ± 0.72
QTGQRFALKDSTSNSIPYLE | -0.607 ± 0.96
QTGRFDIVSAS | 3.52 ± 0.069
QTLGVGSRYVNVNSGLITQL | -0.05 ± 0.29
QTNMMSTHHP | 0.39 ± 0.41
QTRSPQFKPAAYRVFLVDLC | -0.159 ± 0.77
QTRWACTTQCGCKCFFE | 1.53 ± 0.15

Substance | amyloid nucleation score
QVFVIIIFPCMQWYDMYCSD | 0.356 ± 0.55
QVLQNCRGTFDDRILLFNGI | -0.288 ± 0.8
QVNLANFGRRKCKRKGR | 0.185 ± 0.44
QVSANSY | 3.59 ± 0.082
QVWSPHSVSKFGPGPPVTEA | -0.388 ± 1.4
QWNEDLSLWPDLKYGHMLLS | 0.052 ± 0.52
QYDFQ | -0.532 ± 0.88
QYGWCIAYSLELCSLSPNLI | 0.326 ± 0.37
QYYFDLIDLGITVDVMS | 0.684 ± 0.84
RADPYVYLMEGVCGPRWEPN | 0.014 ± 0.77
RANSGNVTFMVRPAFMVVLK | -0.389 ± 0.78
RANSYGGMSNVLW | 0.281 ± 0.28
RCASALVSGVTSVSLRTVQD | 0.83 ± 0.73
RCCGLYVSLWIS | 0.425 ± 0.6
RCCYCLGLFVWATCVGGVRT | 3.1 ± 0.24
RCDGTQDKCWDKSLLFGERR | 0.618 ± 0.45
RCGLAQSSVSSSVKGPRVTW | -0.31 ± 0.6
RCIVWC | 0.207 ± 0.56
RCLTPVIRVIYFG | -0.13 ± 0.3
RCQNRH | -0.221 ± 0.46
RCVAPAV | 0.151 ± 0.56
RCVSFPIWRFIPEVLVIWLG | -1.04 ± 1.3
RCYCDNFVLGLVEL | 0.267 ± 0.29
RCYYLGHVHRICGRWGWGPR | 0.37 ± 0.52
RDDLNTTWFLGRSTLGLMLW | 0.168 ± 0.6

Substance | amyloid nucleation score
RDFWVSRTALMGGYWCWL | -0.175 ± 0.35
RDIRVHATDLNENNCVAHCR | -0.356 ± 0.32
RDNFEMFSPAAKYALFASGT | inactive
RDRNNCYFSDDSNLREAT | -0.634 ± 0.62
RDTICITL | 0.311 ± 0.82
RDTNKSIQ | 0.208 ± 0.56
RENYRAGTFVYGSPRLGPAW | 0.44 ± 0.88
RFDVSMRYLSRSDVYDICAR | 0.177 ± 0.59
RFEKTWHWSAIAGRQGGGIF | -0.697 ± 0.88
RFFFGYAK | 2.02 ± 0.2
RFGFSLSADIMDPRMIVRCM | -0.227 ± 0.24
RFHNRFLYLFKFIQAQINKC | 0.187 ± 0.41
RFKRWGKR | 0.39 ± 0.41
RFLAWTSLPQGAAKVIMKC | 0.126 ± 0.53
RFLSQNGNLIPGRRLPTGVR | 0.54 ± 0.54
RFLSVISDKTIAYWPSDVVS | 0.377 ± 0.99
RFLYVGCCINTIVGFTWFRS | 3.28 ± 0.11
RFSAK | 0.585 ± 0.33
RFSTTFYSVAVVYKRDSR | 1.86 ± 0.24
RFTSDAQ | -0.524 ± 0.24
RFVRYQSQHFHKLNSWWGCL | 0.135 ± 0.39
RFWINIPKYSTIL | -0.751 ± 1.7
RFYKCVLDVNTHLV | 0.883 ± 0.6
RGEKLQEVMSVGYWIGFFNN | 0.907 ± 0.27
RGELAVRKPG | 0.402 ± 0.28

Substance | amyloid nucleation score
RGGWRTVQCSLNQGWLRRYL | 0.048 ± 0.42
RGHLKLVTNYISMSRVSYFS | 2.07 ± 0.16
RGLGWHHRLSCYRSAGFARA | -0.719 ± 2.1
RGNDLFTQVASMKSV | -0.207 ± 0.55
RGNPNTVGIITWCDDVFFFQ | 3.07 ± 0.25
RGNVCCTMIC | 6.09 ± 0.074
RGSMSEWNILYVYASIYKGD | 1.6 ± 0.42
RGTWNDMASGEEVVAFIGEY | 0.51 ± 0.35
RHCLKVFSEDTYESVKVVLR | 0.428 ± 0.75
RHSITLFLVTVETVRACVFK | -0.714 ± 1.2
RILEGVFS | inactive
RILMFKYGKTWRPQCCQD | 0.04 ± 0.53
RILTDLRKICADCNRILPFW | -0.557 ± 1.2
RIMLFFCCSSKVFDFPVLLM | 6.4 ± 0.064
RIPASFRITYVDSIKCKPF | 4.15 ± 0.088
RIYSFHILVS | -0.629 ± 0.38
RKRNKYILYYRCNRWFQLYC | -0.323 ± 1.6
RKSPATVVFSRPSLWLYGRR | 2.97 ± 0.094
RKWNS | 0.152 ± 0.72
RLAYYFKGNANDFLAYLAKY | -0.66 ± 0.76
RLCRTVEWCGCYSIPNLQCA | 0.118 ± 0.46
RLCWQDIGTLFVSWPRMIFV | 0.071 ± 0.45
RLEYCSRRWLANTLSGGRSL | 0.002 ± 0.96
RLFALLWNDFDRSGVAMPVL | -0.379 ± 0.36
RLFHFWQSDGLVGSTKRVDY | 0.128 ± 0.42

Substance | amyloid nucleation score
RLFITCRAL | 2.52 ± 0.18
RLFLSLLMKSRTIMRRKGLV | 2.54 ± 0.15
RLGLVVSVGRRRLLTAQLGK | 1.38 ± 0.72
RLKYYNYERFRLVVLCRVHG | -0.053 ± 1.1
RLLEIWFMLRFGLFVSQCTI | -0.148 ± 0.34
RLLGYLAGVGNVKICRPSAV | 0 ± 1
RLLPGFERGVLYYWA | 0.568 ± 0.43
RLMDTYAEAHTQDRDMIRDV | 0.286 ± 0.49
RLQDSLPTSEVTEIPPPAN | -0.405 ± 0.33
RLRSMAAP | 0.513 ± 0.66
RLRTNVLSNRVGDPIMTSHV | 0.158 ± 0.54
RLSIFRLYPLLCRRG | 0.163 ± 0.34
RLTFKYIKFAMS | 0.206 ± 0.36
RLTVTADWHHHWRLVRQFKA | -0.044 ± 0.71
RLVSRPRSLLQCYWGLVC | 0.392 ± 1.4
RLYSYVFSGSPHIGWHLCSM | 3.82 ± 0.11
RLYTFVLPRFILLEKRHSTN | 0.255 ± 0.32
RMALCKSVCFTFWNIF | 3.69 ± 0.13
RMHYIG | 0.106 ± 0.43
RMLFSYPCESISSHLILCEV | -0.181 ± 0.5
RMLLENVSVKRR | 0.678 ± 0.66
RMLLRFYIATGYLWSIQNCR | inactive
